The data set can be described thus: soluble on expression in E. coli; label from the status in PepcDB or PDB records.
On to “ADPLAATTVADLPVYNGEDVWQRVAQRCRLVDGQGVNERIARQRDWLLNNRGFLTGASKRATPYLHFIVERLDERNMPLELALLPMIESSYNPLANSPAAAAGLWQFIPSTGRQFNLNQSATYDARRDVVASSKAAMDYLTRLHDQFNNDWLLALAAYNAGEGTVARAIDANRRRGMPVDYWHLNLPRETQDYVPRLLALSLVVRNPGAYGVQLTPVANMPYFDVVELNHTVDLTQLAATTGVDEAQLLRLNPAFLRKKTPDGPGRLLIPKTHTQVLTAGIERITGESPTTAVIPASPGKRVIEREPSSQVAERAPTPEPLQAAGREQTAGLMQVLEREPAPESVQPVRREPQPKVVQVARQEPLPGPAQPVQAAEQVTVSDPIQPARQASSQATNERSLLDRRIQKRLYIDDRSSPRKRDEIAYRDEPRELPNGPRVVVYASDPRQ”, for which the “soluble on expression in E. coli” value is reported as “not soluble”. With “MGSDKIHHHHHHRDMEIGDSGNVEIEMGEAAFVLKTSLSSLETKSLSDAGTLPASMDEAEINNCTLIFFEGTQVSSIMEGLFVNKENYIVKTKDGTKDDWAKVILKVKKPSPYSVMVIANSSKSFAGCQSENNIKDIIQDDKDALVKVGKMDISFDTDFAGYPTIAEALGKPLEIGAIPLSQLTARIELAEFNVSGFQGASVKEKVTVTGVDLLNLNPESYTINEQTHKNATYLSESKTCNVEVYNGVSDLPSTYSFVDNKNLLSFYSFRNLAKAESDQVKMQVRFKIGNSNEERTTRPFVINKEGNILHGVKSGYVYRLVVNMTIIGDKVETELLCYTRDWLNNTISIPMEDN”, the “soluble on expression in E. coli” value is “not soluble”.

As to “MGHHHHHHSHMLACCAIYSPVRCAFPYTETERRFTCKRRIFRIILTLCGRENMKIRALLVAMSVATVLTGCQNMDSNGLLSSGAEAFQAYSLSDAQVKTLSDQACQEMDSKATIAPANSEYAKRLTTIANALGNNINGQPVNYKVYMAKDVNAFAMANGCIRVYSGLMDMMTDNEVEAVIGHEMGHVALGHVKKGMQVALGTNAVRVAAASAGGIVGSLSQSQLGNLGEKLVNSQFSQRQEAEADDYSYDLLRQRGISPAGLATSFEKLAKLEEGRQSSMFDDHPASAERAQHIRDRMSADGIK”, the “soluble on expression in E. coli” value is “not soluble”. In the case of “GKNTPKSAIIYTTMGDIHISLFYKECKKTVQNFSVHSINGYYNNCIFHRVIKHFMVQTGDPSGDGTGGESIWGNEFEDEFFDHLNHSKPFMVSMANCGPNTNGSQFFITTVPCPWLDFKHTVFGKVTQGSKIVLDIEKVRTDKRDKPLEDIKILNIKINN”, the “soluble on expression in E. coli” value is given as “soluble”. For the sequence “MGSDKIHHHHHHMFTSFAFVTGAFVLFGCDNGRNSDTICKNNPELCEDLHKDSWCRYEKGDLIRQRFILKTTPNPTGKQIYDQLRFLEVYSKCIELASGVQHKVNVQRTNDRLRAFGISVQNLEELQESTKGSQDPYLAYYHWSRLDDAKSLAVLIKAEKEGQISDPELLSKLAIYYLKTDAARAKKLYLDVLGMVDADHLDPDWLLGLATASRTLGDLDGSYLYSRANIALTKQSVNEAQMLALLTGDKTKAAMLDSEAEQLAKAVSSGNFAGSAIEKRLRAEIDTERAKIEPVAPLAQD”, the “soluble on expression in E. coli” value is on record as “not soluble”. On to “MSQVTEQSVRFQTALASIKLIQASAVLDLTEDDFDFLTSNKVWIATDRSRARRCVEACVYGTLDFVGYPRFPAPVEFIAAVIAYYVHPVNIQTACLIMEGAEFTENIINGVERPVKAAELFAFTLRVRAGNTDVLTDAEENVRQKLRAEGVM”, for which the “soluble on expression in E. coli” value is recorded as “soluble”. “MHTQRAGLSAIVATYRYQLATGVVYRDISSTIATEKIPFVENAVLKERAFIETIKQHQEPQRRIPRPVDSYVMLHSNARITTSRVIPQHKYKVTAKNPCRSIKRNAFQTAPSQTQLFISVNNRWLGLEHHHHHH”: the “soluble on expression in E. coli” value is on record as “not soluble”. Turning to “MGSDKIHHHHHHMKSRLKKSHRLIRLISNIKSEPYLTVEQLVKIHRISRAQFYKDKAALAELGFEFSWDRRRRRFVISRVAYCPVENLTLSERWALLMAARQLSASGDYSLSFEVLNAARKLAAGLSDPIRETAVSLFNDLVLREGYGCRKEVMNKISMAIFEKRRIILTYKKPLDSQPEREELDPYHLFFQDRSLYVEGYACLRRDVRMFRLNRIRDIAFTPIRFSIPDDYDFGKRYRNAFSVFGGTTTQRVVVRFTAHIRPYIEETLWHHSQVVTIENGGFIRFEVQVAEPREVLWWAFRWGAGAEILEPAWLREKAKCEVEKMAGMYGRGSGSG”, the “soluble on expression in E. coli” value is given as “not soluble”. “MFTIEHLNFAWLQVRAGSKSAGVDGISVDLFESMATEQLQNIAYQLKEETYTANPAKGFYIPKKNGTKRLIGIHTVRDRIIQRLLLDELYFPLEDTFLDCSYAYRPGHSIQQAVQHLYGYYQYQPKWIIKADVADFFDNLSWALLLTYLEELSLEPSLLQLLEQQLKSGIIIAGQYRNFGKGVLQGGILSGALANLYLTSFDRKCLSQGINLVRYGDDFVIACNSWLEANRILDKITGWLGEVYLTLQPEKTQIFTPNDEFTFLGYRFAGGEVYAPPPPEPVRPGEWVINDSGTPYFRLKPKPRKPVSLEHHHHHH”: the “soluble on expression in E. coli” value was “not soluble”. With “MSLSRRGRPKIPRFISEEPKFRIFKPHGVSLTEVDKVILSVDELEAIRLVDYLDYTQEEASKLMGISRRVLWSLLTEGRKKIADALINGKAIVIEGGEYKIRECGFCMRHRFGIKKHCRTWREELEGHHHHHH”, the “soluble on expression in E. coli” value is recorded as “not soluble”. As for “MGSDKIHHHHHHMKKNGTTNSNGGNLGFEADLFKAADKLRGNMEPSDYKHVALGLIFLKYISDAFEARHQALLAEDPRAAEDRDEYLADNVFWVPKEARWSHLRANARRPEIGLLIDEAMRAIEKENESLKGVLPKDYARPALNKVMLGELIDLISGIALGEEGDRSKDILGRVYEYFLGQFAGAEGKRGGEFYTPRSVVRVLVEMLEPYHGRVYDPCCGSGGMFVQSEKFVQEHGGRIGDIAIYGQESNYTTWRLCKMNLAVRGIDADIRWNNEGSFHKDELRDLKADFILANPPFNISDWGGERLREDVRWSFGVPPVGNANYAWLQHIHHHLAPNGTAGVVLANGSMSSNQSGEGEIRKAMVEADVVDCMVALPGQLFYSTQIPACLWFLARNKNPGKGLRDRRGQVLFIDARKLGVLVDRTRRELTDAEIQKIADTYHAWRGEPDAGEYQDVPGFCKSATLEEIRKHGFVLTPGRYVGAAQQEDDGEPFEEKMARLAAQWREQRAAAAKLDAAIEANLKELGYGG”, the “soluble on expression in E. coli” value is “not soluble”. The value for “GREPADMVLKGGRFFDLVTGELVASDIAICGDTVVGTCGDYKGRHEIDISGKIVVPGFIDTHLHIESSLVTPHEFDRCVLPYGVTTAICDPHEIANVLGAEGLQFFLDSAMETIMDIRVQLSSCVPATHLETSGADLPIEKLLPFRNHPKVIGLAEFMNFPGVIHKDPVCMAKLEAFQGQHIDGHAPLLSGAALNGYLAAGIRTEHECTSAAEALEKIRKGMHILVREGSVSKDLHALMPIITERLSPYLALCTDDRNPLDIAEQGHLDYMIRTAIASGVEPLAIYRAASISAAKAFGLRDRGLVAPGWRADLVVIDTLQNCKASMVLSGGRLVDDALFATRKPVAPVGLDSVKARPVLASHFGVPVTEGETPVMGVLPGKIITEHRRYKLPTDGNQTTVDLENDIIKVAVIERHGKNGNHANGFVQGFGLKKGAIASTVGHDSHNICVVGVSEDDMALAANRLGDIKGGFVVVEDGRVTGEIALPVAGLMSLEPYETVRDTLHTLRKAAYALGTTLEEPFLQVAFLPLPVIPHLKISDMGMVDVDRFA” was “not soluble”; that for “MSNDRPLIFVDLDDTLFQTARKTPADIEKHVATLDISGNANGYMTNVQKSFAHWLLAHADVVPVTARSVEAYSRVKLPFTAGAICSHGGVMLDVMGRLDPDWNEQMKQTLASYQSRLHELSAATLAIGQEMGFSLRGWVVEEAQLFHYVVTKHNESDDSILTKVLAEMQARGLLDGMHIHGNGNNLAFLPEGLAKRYAVQEWLRRDLAINGERPVLGFGDSITDLGFMDECHWWATPARSQLAKMFVGAAHE” was “not soluble”; that for “MFGRQVGRVVFRTASVVVQRRSVSASVPQMVKLVAPSVNFIQTRGSKIEVFGPFDPPKQLTFKQVEDRVLKAVRSWDRFPADKESLLKLDADLSKDFGFDSLDQVEIVMALEDEFGFEIPLQDSDKFKTIRDAFKYICEREDVYE” was “not soluble”.

For the sequence “MQKRDGHIHTPFCPHGSNDTLRQYAEEALKKGFESITFTEHAPLPPSFTDPTPLKDSAMAQASLERYIHEISGLKKEYRGQLSIRTGLEVDYIAEFEDEITLFLDTYGPYLDDSILSVHFLRTDSSYLCLDYDEHTFKELISACGSIEAVYEQYYRSIYSSIVASLGVYKPKRVGHITLVQKFIKLFPYSMSEHIRGLVSLCLNAIEENGMELDFNTSGLRKTYAGGIYIEDWMLNEAKQKKIPLVFGSDAHQAGDVGYAYEAFLERCLEHHHHHH”, the “soluble on expression in E. coli” value was “not soluble”.

Regarding “MSLKFHSPSCFLSAGEPSGDTLGSDLLRNIKELNPNIHCFGVGGPLMRKEGLEPLIRMEEFQVSGFLEVFCAVFSLYKKYRKLYKAILKENPETVFCIDFPDFHFFLIRKLRKCGYRGKIIHYVCPSIWAWRPNRKKILEKHLDTLLLILPFEKEIFKDSPLKTIYLGHPLVKTIANFQDCNAWKQQLEISDQPSVALFPGSRPGDIFRNLQVQARAFRSSSLAKSHQLLVSSCNPKYDKKILELLDKEGCHNNKIVPSKFRYQLMRDCDCALAKCGTIVLEAALNQTPTIVTCLLRPFDTFLAKYIFKIFIPAYSLPNIITGSVIFPEFIGGKHDFSPEEVAAAIDILANPIGKEKQKYACQQLLKTMTENVITPKECLQAIYAQKNREGHHHHHH”, the “soluble on expression in E. coli” value is on record as “not soluble”.

Turning to “MGSDKIHHHHHHMPHHQYVLTLSCPDRAGIVSAVSTFLFENGQNILDAQQYNDTESGHFFMRVVFNAAAKVIPLASLRTGFGVIAAKFTMGWHMRDRETRRKVMLLVSQSDHCLADILYRWRVGDLHMIPTAIVSNHPRETFSGFDFGDIPFYHFPVNKDTRRQQEAAITALIAQTHTDLVVLARYMQILSDEMSARLAGRCINIHHSFLPGFKGAKPYHQAFDRGVKLIGATAHYVTSALDEGPIIDQDVERISHRDTPADLVRKGRDIERRVLSRALHYHLDDRVILNGRKTVVFTD”, the “soluble on expression in E. coli” value is listed as “not soluble”. With “MAQGFKITYTDQACLLDIQDPQNKESQSFHYALVPRGVEAENIPADYTVIETPIRSVICMTSLQLSNFIKLEELDAVVGITSTRHLFNKKINDRLKDGSIHKIGIEGNFDNEVIMSVNPDLILISPFKRGGYDALKEVGIPLMPHLGYKEMTPLGQAEWIKFVGLLLGREDKANKQFAAIKKRYNELKELTGLEHHHHHH”, the “soluble on expression in E. coli” value is given as “not soluble”. The value for “MGSDKIHHHHHHMNNKKIFLFEFTVGTGLVPDELLAEGKLMFDILLNQFLDENYTVKTVLCEKIAKKYPKYNEINNLEIIVSDNYINSFKEGLDDSDFALAIAPEEDLILYNLTELIEESGCLNLGCEKSGVKIAGDKFLTYEAIKNAVNTPKTFPVKKYVVKNRLGCDSTHDTFDENYIVQEFIEGEPYSVIFIAKNKKFYPVCMNKQYIEKRYCGGEINIEHTLKEKAIIECKKTLEKIEGINGYVGVDLMINGEEISILEVNPRITTSICGIKSKPSIGKLLIDNALEKDIKFEVESCLKFKRNDFGFEFL” was “not soluble”; that for “MGSDKIHHHHHHHILNKKSYKNGYDNISDTDSVYFNGVEKYARFADFPVQINIMQKFDYTLDQLMLRDDYEISLEEWSSILFQIIFALAVAQKEYSFAHNDIHSDNVMFSNTKEPYIYYHINDTIYKVPTFNRVAKLIDFARGTFKVDGKWYISDVFENGGEADGQYEYDLNDFKPNHSFDLARLASSIIDNVNVPEIEDILRTWIKTTSGYDVMEDKDTFDIYIKIAKECFNAVPTKVIKHKLFQQFKITKKQKPNNTYVYYY” was “not soluble”.

Source of the values: the DeepSol protein solubility set.
